Experiment: yeast display, Sf9 membrane polyspecificity reagent, FACS + sequencing; frameworks hold sequencing errors
How it was run: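 Nanobodies from a synthetic yeast display library (Saccharomyces cerevisiae BJ5465), induced 36–48 hours with galactose, were stained 1 hour at 4 °C with 10% biotinylated, detergent-solubilized Sf9 membrane reagent, enriched on streptavidin microbeads, then FACS-sorted. Anti-HA (expression) and streptavidin (reagent binding) fluorescence set low and high (top ~1%) gates. Polyreactivity labels come from the gate of origin. Genes were colony-PCR amplified, MiSeq 2 × 250 sequenced and filtered by CDR length.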

Row | Sequence | polyreactivity (PSR sort gate)
1 | QVQLVESGGGLVQAGGSLRLSCAASGSTFIRNAMGWYRQAPGKERELVAAINSGGNTYYADSVKGRFTISRDNAKNTVYLQMNSLKPEDTAVYYCAKAWGTYRSVYYRGYYWGQGTQVTVSS | high polyreactivity
2 | QVQLVESGGGLVQAGGSLRLSCAASGSTFIRYVMGWYRQAPGKERELVASITISVGSTYADSVKGRFTISRDNAKHTVYLQMNSLKPEDTAVYYCNARYVENTPYPYDYWGQGTQVTVSS | low polyreactivity
3 | QVQLVESGGGLVQAGGSLRLSCAASGSTFITYAMGWYRQAPGKERELVAAISTGGSTYYADSVKGRFTISRDNAKNTVYLQMNSLKPEDTAVYYCNAYSSSRGSTLQYSLQYDYWGQGTQVTVSS | low polyreactivity
4 | QVQLVESGGGLVQAGGSLRLSCAASGSTFIVNAMGWYRQAPGKERELVAAISRGGSTYYADSVKGRFTISRDNAKNTVYLQMNSLKPEHTAVYYCAARIWRTRRYDYWGQGTQVTVSS | high polyreactivity
5 | QVQLVESGGGLVQAGGSLRLSCAASGSTFIWNGIVWSRQAPGNEREWVAAITSSSTNYADSVKGRFTISRDNANNTVYVQMNSLKPEDTAVYYCAAEIYPLGSLRLGPGEYDHWGQGTQVTVSS | low polyreactivity
6 | QVQLVESGGGLVQAGGSLRLSCAASGSTFIYNTMGSYRQAPGKERELVATNTDSSDSTNYADSVKGRFTISRDNAKNTVYLQMNSLKPEDTAVYYCAADGEVDIATYPSQITDYDYWGQGTQVTVSS | low polyreactivity
7 | QVQLVESGGGLVQAGGSLRLSCAASGSTFKAYAMGWYRQAPGKEMELVAVITADGSTSTHYADSVKGRFTISRDNAKNTVSLQMNSLNPEDTAVYYCAAGSPYYSERYYYWGQGTQVTVSS | low polyreactivity
8 | QVQLVESGGGLVQAGGSLRLSCAASGSTFKFNAMGWYRQAPGKERELVAAISRGGRTNYADSVKGRFTISRDNAKNTVYLQMNSLKPEDTAVYYCAKDVAGLFHVGALYYYWGQGTQVTVSS | low polyreactivity
9 | QVQLVESGGGLVQAGGSLRLSCAASGSTFKGYAMGCYRQAPGKERELVAAISWSAGSTYYADSVKGRFTISRDNAKNTVYLQMNSLKPEDTAVYYCAKASVALRYYSYSLGRDYWGQGTQVTVSS | low polyreactivity
10 | QVQLVESGGGLVQAGGSLRLSCAASGSTFKHYAMGWYRQAPGKERELVAAISERGGSTYYADSVKGRFTISRDNAKNTVYLQMNSLKPEDTAVYYCARRVSRFSKFGYWGQGTQVTVSS | high polyreactivity
11 | QVQLVESGGGLVQAGGSLRLSCAASGSTFKPYTMGWYRQAPGKERELVAGISSVDSTYYADSVKGRFTISRDNAKNTVYLQMNSLKPEDTAVYYCAADTVYIFSSAINGEFGYWGQGTQVTVSS | low polyreactivity
12 | QVQLVESGGGLVQAGGSLRLSCAASGSTFKPYTMGWYRQAPGKERELVAGISSVDSTYYADSVKGRFTISRDNAKNTVYLQMNSLKPEDTAVYYCNKRKWPTFTYAMNYWGQGTQVTVSS | low polyreactivity
13 | QVQLVESGGGLVQAGGSLRLSCAASGSTFKQYAMGWYRQAPGKERELVAAIDRGGSTYYADSVKGRFTNSRDNAKNTVYLQMNSLKPEDTAVYFCAARFVQYLYAYDYWGQGTKVTVSS | low polyreactivity
14 | QVQLVESGGGLVQAGGSLRLSCAASGSTFKQYAMGWYRQAPGKERELVAAISSSGSTYYADSVKGRFTISRDNAKNTVYLQMNSLKPEDTAVYYCARSRYLWYTVPPKYGYWGQGTQVTVSS | high polyreactivity
15 | QVQLVESGGGLVQAGGSLRLSCAASGSTFKRNAMGWYRQAPGKERELVAAITYSGTRTYYADSVKGRFTISRDNAKNTVYLQMNSLKPEDTAVYYCAVSVPYGMDYWGQGTQVTVSS | high polyreactivity
16 | QVQLVESGGGLVQAGGSLRLSCAASGSTFKRYAMGLYRQAPGKERELVASIPSAASTYYADSVKGRFSISRDNAKNTVNLQMNSLKPEDTAVYYCAASAYSALYYWYDYWGQGTQVTVSS | high polyreactivity
17 | QVQLVESGGGLVQAGGSLRLSCAASGSTFKRYAMGRDRQAPGQERELVAAITWRGGSTYYADSVKGRFTISRDNAKNTVYLQMNSLKPEDTAVYYCNKASWKVGPGIGYDYWGQGTQVTVSS | high polyreactivity
18 | QVQLVESGGGLVQAGGSLRLSCAASGSTFKRYAMGWYRQAHGKERELVAAISRRGGSTYYADSVKGRFTISRDNAKNTVYLQMNSLKPEDTAVYYCAARGTGNIYDYWGQGTQVTVSS | high polyreactivity
19 | QVQLVESGGGLVQAGGSLRLSCAASGSTFKRYAMGWYRQAPGKERELVAAITRGGGSTYYADSVKGRFTISRDNAKNTVYLQMNSLKPEDTAVYYCNKGYRDYFTAYLSRYYWGQGTQVTVSS | high polyreactivity
20 | QVQLVESGGGLVQAGGSLRLSCAASGSTFKSYAMGWYRQAPGKERELVAAINWSGGSTYYADSVKGRFTISRDNAKNTVYLQMTSLKPEDTAVYYCNAVYAVRSYDSWGQGTQVTVSS | high polyreactivity
21 | QVQLVESGGGLVQAGGSLRLSCAASGSTFKSYAMGWYRQAPGKERELVAAITHRGSTYYADSVKGRFTISRDNAKNTVYLQMNSLKPEDTAVYYCAASLRAPSLGHYYYWGQGTQVTVSS | high polyreactivity
22 | QVQLVESGGGLVQAGGSLRLSCAASGSTFKVYAMGWYRQAPGKERELVAAISRSGGRTYYADSVKGRFTISRDNAKNTVYLQMNSLKPEDTAVYYCNRDYTFSQGHYSGSYGYWGQGTQVTVSS | high polyreactivity

Row | Sequence | polyreactivity (PSR sort gate)
23 | QVQLVESGGGLVQAGGSLRLSCAASGSTFKWYAMGWYRPAPGKEREFVAAITKTGGRTNYADSVKGRFTISRDNAKNTVYLQMNSLKPEDTAVYYCAAGYYAGIYYYWGQGTQVTVSS | high polyreactivity
24 | QVQLVESGGGLVQAGGSLRLSCAASGSTFKYNAMGWYRQAPGKERELVAAITRGGRTYYADSVKGRFTISRDNAKNTVYLQMNSLKPEDTAVYYCAAKWLGTAGDDYWGQGTQVTVSS | high polyreactivity
25 | QVQLVESGGGLVQAGGSLRLSCAASGSTFKYYAKGWYRQAPGKERELVAAISASGGTTYYADSVKGRFTISRDNAKNTVYLQMNSLKPEDTAVYYCAARYLTTFSRTDMEYWGQGTQVTVSS | low polyreactivity
26 | QVQLVESGGGLVQAGGSLRLSCAASGSTFKYYSIGWYRQAPGKERELVASITGRTVGTYYADSVKGRFTISRDIAKNTVYLQMNSLKPEDTAVFYCATDLYWDYPDKGYTVSWWYGYWGQGTQVTVSS | low polyreactivity
27 | QVQLVESGGGLVQAGGSLRLSCAASGSTFKYYTMGWYIQAPGKERELVAAITWRGGSTYYADSVKGRFTISRDNAKNTVYLQMNSLKPEDTAVYYCNVLQRYGASRYDYWGQGTQVTVSS | high polyreactivity
28 | QVQLVESGGGLVQAGGSLRLSCAASGSTFKYYTMGWYIQAPGKERELVAGITLSGTTTYYADSEKGRFTISRDNAKNTVYLQMNSLKPEDTAVYYCAADYYHDFNAYYYWGQGTQVTVSS | low polyreactivity
29 | QVQLVESGGGLVQAGGSLRLSCAASGSTFLAYAMGWYRQAPGKERELVAAISSSGGRPYYADSVKGRFTISRDYAKNTVYLQMNSLNPEDTAVYYCAARYKNRGGFGYWGQGTRVTVSS | high polyreactivity
30 | QVQLVESGGGLVQAGGSLRLSCAASGSTFLFNGMGWYRQAPGKERELVAAISRSGGRTYYADSVKGRFTISRDNAKNTVYLQMNSLKPEDTAVYYCAAKYRLSGGYGVDYWGQGTQVTVSS | high polyreactivity
31 | QVQLVESGGGLVQAGGSLRLSCAASGSTFLGYVMGWSRQAPGKERELVAAITRSGGRTYYADSVKGRFTISRDNAKNTVYLQMTSLNPEDTAVYYCAALRGPSFHGYGYWGQGTQVTVSS | high polyreactivity
32 | QVQLVESGGGLVQAGGSLRLSCAASGSTFLKYTMGWYRQAPGKDRELVAGITRSSGSTYYADSVKGRFTISRDNAKNTVYLHMNSLKPEDTAVYYCAATVYLYTDLAYYWYGYWGQGTQVTVAS | high polyreactivity
33 | QVQLVESGGGLVQAGGSLRLSCAASGSTFLLYAMGWYRQAPGKERELVATISWGGDGTYYADSVKGRFTISRDHAKNTDYLQMNSLKPDDTAVYDCAAQSYLVQFYFLYYYWGQGTQVTVSS | low polyreactivity
34 | QVQLVESGGGLVQAGGSLRLSCAASGSTFLRNAMGWYRQAPGKERELVAAISLGSGSTYYADSVKGRFTISRDNAKNTVYLQMNSLKPEDTAVYYCAADVSRWLDYGYDYWGQVTQVTVSS | low polyreactivity
35 | QVQLVESGGGLVQAGGSLRLSCAASGSTFLRYAMGWYRQAPGKERELVATISRCDDGTYYADSVKGRFKISRDNEKNTVFLQMNSLKPEDNAVYYCDARSWYLYYYWGQGTQVTVSS | low polyreactivity
36 | QVQLVESGGGLVQAGGSLRLSCAASGSTFLSNAMGWYRQAPGKERELVAAITIGGSTNYADSVKGRFTISRDNAKNTVYLQMNSLKPEDTAFYFCAADWYYDYAELTRDYDYWGQGTQVTVSS | low polyreactivity
37 | QVQLVESGGGLVQAGGSLRLSCAASGSTFLTNAMGWYRQAPGKERELGAAITWSTGSTYYADSVKGRFTISRDNAKNTVYLQMNSLKPEDTAVYYCNARSEVSYWWGGYWGQGTQVTVSS | low polyreactivity
38 | QVQLVESGGGLVQAGGSLRLSCAASGSTFLTNAMGWYRQAPGKERELVAAITWSGTSTYADSVKGRFTISRDNAKNTVYLQMNSLKPDDTAVYYCAAPILSFPSPYVQYDYWGQGTQVTVSS | low polyreactivity
39 | QVQLVESGGGLVQAGGSLRLSCAASGSTFLTNTMGWYRQAPGKERELVAAITLRGGRTYYADSVKGRFTISRDNAKNTVYLQMNSLKPEDTAVYYCNARNYYYPSDRDYWGQGTQVTVSS | low polyreactivity
40 | QVQLVESGGGLVQAGGSLRLSCAASGSTFLVNAMGWYRQAPGKERELVAAITSGGDTNYADSVKGRFTISHDNAKNTVYLQMNSLKPEDTEVYYCATDYFNYRYFDFRWYYYWGQGTQVTVSS | high polyreactivity
41 | QVQLVESGGGLVQAGGSLRLSCAASGSTFLVYAMGWSRQAPGKERELVAAIRGGGSTNYADSVKGRFTISRDNAKNTVYLQMNSLKPEDTGVYYCAAYLLYTPSMDYWGQGTQVTVSS | low polyreactivity
42 | QVQLVESGGGLVQAGGSLRLSCAASGSTFLWNAMGWYRQAPAKERELVAAISYSGGSTYYADSVKGRFTISRDNAMNTVYLQKNSLKPEDTAFYYCAKEWFYDPYPPGYDSWGQGPQVTVSS | low polyreactivity
43 | QVQLVESGGGLVQAGGSLRLSCAASGSTFLWYAMGWYTQAPGKERELVATISGSGGSTYYADSVKGRFTISRDNAKNTVYLQMNSLKPEDTAGYYCAAGTLVQRSRWVTFSAYDGDYWGQGTQVTVSS | high polyreactivity

Reference: the nanobody polyreactivity screen of Harvey et al. (2022)
